Assay results: the RNAGym collection of RNA variant scans (doi:10.1073/pnas.2313332121)

B1: TPR t1 (parent)
chain: GACCAAUCUGCCCUCAGAGCUCGAGAACAUCUUCGGAUGCAGAGGAGGCAGGCUUCGGUGGCGCGAUAGCGCCAACGUCCUCAACCUCCAAUGCAUCCCACCACAUGAUGAUGCCUGAAGAGCCUUGGUUUUUUG

Variants of: B1
Assay: polymerase ribozyme fitness, log enrichment relative to wild type (log ratio); higher = more active; in vitro selection for triplet polymerase activity
Summary of the method: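 Fitness measures genotype enrichment against wild-type enrichment on a logarithmic scale, with inverse-variance-weighted averaging of replicates. The logarithm is base 2, and genotypes were kept only with ≥10 input reads and ≥1 read per output in Illumina sequencing. The sequenced libraries came from one triplicate in vitro selection round, including frozen incubation at −7 °C, of PCR-built, transcribed mutant libraries of each subunit of a heterodimeric triplet polymerase ribozyme.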

Row | Variant | polymerase ribozyme fitness (log ratio)
1 | C12G C114U | -1.65
2 | C12G C88U A105U C123A | -0.335
3 | C12U C20U C40U C49G | -1.67
4 | C12G C34G C114A | -6.75
5 | C12A U54A G113C U125G | -3.66
6 | C12A U33A G48U A74C C94U | -5.8
7 | C12G C13U G52U G61U C102U A121U G122C | -1.95
8 | C12G U33G | -4.76
9 | C12G U21A G71U U78A A121U | -0.676
10 | C12G C20U C72U G117U | -2.78
11 | C12A U78A | -1.37
12 | C12G C20U C123U U125C | -0.31
13 | C12G A26C G60U | -3.25
14 | C12U A37U A119U | -0.00616
15 | C12G A50U G117C U125C | -6.32
16 | C12U A37U C85U G93C G120A | 0.532
17 | C12G C64G | -5.49
18 | C12G C64U | 0.291
19 | C12A G120C A121U | 1.87
20 | C12A U81A | -1.96
21 | C12A U55G C72U U92G | -2.88
22 | C12G C49G C70A C97U | -1.84
23 | C12G U92C G120U | 1.41
24 | C12G C15A C22U A26G U116C A118U C124G | -2.97

Row | Variant | polymerase ribozyme fitness (log ratio)
25 | C12A G107C A119C G120A | -4.18
26 | C12A G61U U78A U96A | -1.84
27 | C12G C82U C97A | -3.58
28 | C12G C56A C70G | -3.89
29 | C12G A29U A46U C124A | -1.77
30 | C12G C13A G42C G69A G117C A118U U134G | -4.53
31 | C12U A27G C40U C56U C86U C102U | -3.62
32 | C12U A27G A66C C73A U78C C101A | -4.25
33 | C12U A46C C53G G71C A84C A95C | -2.46
34 | C12G C15U | -0.505
35 | C12G U96G G117U | -2.18
36 | C12U C15U | -0.154
37 | C12U A75G G128A | -1.43
38 | C12G C72U | 0.127
39 | C12G C15U C56U G77C A83C C88A U106A U132A | -3.55
40 | C12U C15G C79A C85G G120A | -2.63
41 | C12A U32C U96A G122C C123G U131A | -0.725
42 | C12U C15G G71C G127C | -4.84
43 | C12G A26G C98U | -3.76
44 | C12U A43U C56G | -1.63
45 | C12U A46U C49U G63C A90C | -4.26
46 | C12A G57U A91G U96A | -3.09
47 | C12G C28U G36U G60A A83C C97U | -3.31
48 | C12U C20U A43U G45A C56G G113A | 0.057

Row | Variant | polymerase ribozyme fitness (log ratio)
49 | C12U C13U C97A C123U C124A | -2.92
50 | C12A G61U A66C U78C C80A G107U C114U G127C | -6.6
51 | C12A U21A C53A G71U C98U | -4.86
52 | C12U A27G G47A G51A G58A G61C A103G A121G | -7.4
53 | C12G G36U U132A | -1.56
54 | C12G A41U A83U G113C | -3.27
55 | C12U A41U A50U G57C C76G C99U | -7.02
56 | C12A G51U G77A | -1.98
57 | C12G U14G G52C G61A C82A C88A A118U | -2.32
58 | C12U A100U | -0.242
59 | C12G G39A C89A U106C | -2.19
60 | C12U A18C G71U U131C | -1.9
61 | C12U A83C | 0.0344
62 | C12U C13A C114G | -4
63 | C12G C89U | -0.711
64 | C12U C13U C20A G47C C86U | -2.7
65 | C12G C22U U32G C102A A111U G122U | -7.04
66 | C12G C13U | -0.223
67 | C12G C20U C76A | -1.37
68 | C12G U55C C88A C104G G113A C123G C124A | -6.5
69 | C12U A29C U131G | -2.88
70 | C12A U33G G48A A119G | -5.25
71 | C12U A27C C62A A83U | -6.02
72 | C12G A41C C82U | -0.401

Row | Variant | polymerase ribozyme fitness (log ratio)
73 | C12G C28U | -0.928
74 | C12U C13A C72G U78C | -1.57
75 | C12G G19A G63U C79G U81G U112C G117U | -7.76
76 | C12G C40G | -1.2
77 | C12G G65A | -3.6
78 | C12G C15G G45A G61C | -4.58
79 | C12G C62U A75C A108G | -2.34
80 | C12U C13G C20A A37G A46U G77A G120A | -2.45
81 | C12G A43G | -1.17
82 | C12U C13U G42U G51C U116G | -7.04
83 | C12G G48A G60A G93A | -1.03
84 | C12A U33C A103C G113U C114G G127U | -6.43
85 | C12U A18C A29G C82U U92A | -3.51
86 | C12A G77U C82U | -1.87
87 | C12G C73G C88G | -1.78
88 | C12G C82U A105U U106A U109G | -1.76
89 | C12G C22G | -3.07
90 | C12U A16G C20U C64A A84U U112G G113U | -7.14
91 | C12U C13U U38C C40A A91U | -3.21
92 | C12U A18U | -2.21
93 | C12G A27G | -1.67
94 | C12U C13U A43G G61A | -2.1
95 | C12U A111G | 0.95
96 | C12U A111U | -2.01

Row | Variant | polymerase ribozyme fitness (log ratio)
97 | C12G C13A G45C C56U | -1.27
98 | C12G C15A A108G A111C | -4.53
99 | C12U A119C A121C | -2.21
100 | C12G A46G G63A C115G | -6.03
101 | C12G G44U A90C A121U | 0.668
102 | C12U A108G U130A | -3.19
103 | C12G C53A C73G G107C U112C | -3.66
104 | C12U C20A C28U A37G G42A G45U A46U G48A C82U G110A A111U A119G | -4.23
105 | C12G U54C G61C | -2.85
106 | C12G C62U U116A | -2.68
107 | C12A U14A U87A C88U | -4.28
108 | C12G G42A G52A C62U C104A | -5.44
109 | C12A G63C C102G C104U G113A | -7.42
110 | C12G U14G A24G C49A G61U G77U C104U | -6.42
111 | C12G A46C C101U U132C | -1.45
112 | C12G C53A | 0.285
113 | C12G G39U G60U C80G C123U | -4.73
114 | C12G C34G G69U A83C | -3.04
115 | C12U A18G C20U C94U G117U | 0.203
116 | C12G G45A G107U | -5.21
117 | C12U A74U C80A C97U A121G U133A | -0.836
118 | C12G C15A U78A | -2.34
119 | C12G C20G C79U C82U A91U G107C G117A | -4
120 | C12G U33G C70U U87G A118U U125A | -5.53

Row | Variant | polymerase ribozyme fitness (log ratio)
121 | C12U A66G A74U | -1.17
122 | C12U A29U G52C C73U | -1.91
123 | C12G A16U G45U C89G U129C | -4.69
124 | C12G G19C G23C U59C G60U | -6.79
125 | C12G C40A A50C C80A A84C C104U | -3.24
126 | C12U A50U | -1.64
127 | C12G A83U C104A U125G | -2.42
128 | C12U A37U G60C | -1.06
129 | C12U C13A G60C A121U | 1
130 | C12A U96A A121G | -0.355
131 | C12U C13U | -0.904
132 | C12G A27U C56U C101G C102A C104G C114U | -5.64
133 | C12U A37U A111G C123A | -0.195
134 | C12A G69C A90U U106A | -4.63
135 | C12A G52A A91G | -1.2
136 | C12U C15U U38C A43C C123A | -1.45
137 | C12A G60A | -1.28
138 | C12A U55A G122A U126A | -5.02
139 | C12G U14A | -1.56
140 | C12G G113A | -0.4
141 | C12A G117A | -1.29
142 | C12G G44U G60U A100U | -0.779
143 | C12G C72U U116A G120U | -0.787
144 | C12A G61C U78C C80U C82A A121C | -7.45

Row | Variant | polymerase ribozyme fitness (log ratio)
145 | C12G G61C | -0.968
146 | C12G A26G | -1.93
147 | C12G A18C C80U U112G | -3.95
148 | C12G C123U | 1.34
149 | C12G A29U G39U U55G | -2.45
150 | C12U A41U C56A U87A C114U | -3.21
151 | C12U A43C A90U | -0.274
152 | C12A G110C | -3.17
153 | C12G C49A G63U C72U C89A | -3.61
154 | C12G C62G A108G | -3.58
155 | C12A U130A | -2.22
156 | C12U C13G C70G | -2.49
157 | C12G C72A C104U C123U C124A | 1.79
158 | C12A G69C C85A G113U G127A U130C | -7.98
159 | C12A G120A U126G | 0.354
160 | C12G U21C A29U C123U U131A | -1.87
161 | C12U C20G A43C G48A C62U | -6.08
162 | C12A U133G | -1.24
163 | C12U A16G C73U C102A | -1.8
164 | C12G C56A | 0.208
165 | C12G A103U | -4.83
166 | C12U C20U U96C | -0.583
167 | C12G A18U G51U A74G C86A C124A | -6.6
